The values below come from patent US20230038521A1 (INSTITUTE OF SCIENCE TOKYO, published 2023).

In the test the target is T1, human HMGB1 protein (human, UniProt P09429 1-215).
T1 construct: Non-denatured protein, used as analyte in SPR and added to neurons in the MARCKS phosphorylation assay; also called High Mobility Group Box 1
T1 sequence (looked up): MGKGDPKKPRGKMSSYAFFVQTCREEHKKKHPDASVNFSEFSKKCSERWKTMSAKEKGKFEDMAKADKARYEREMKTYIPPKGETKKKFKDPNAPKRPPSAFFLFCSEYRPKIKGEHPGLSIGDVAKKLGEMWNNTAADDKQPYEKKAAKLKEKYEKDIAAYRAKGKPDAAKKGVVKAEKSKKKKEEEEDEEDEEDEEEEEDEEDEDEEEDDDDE
As to the kind of experiment: SPR, Biacore T100, antibody immobilized on the chip, human HMGB1 as analyte. How it is done: The interaction between the human monoclonal antibody group of the present invention and human HMGB1 protein was compared and examined using SPR. Specifically, using a sensor chip on which each human monoclonal antibody of the present invention was immobilized and human HMGB1 protein as an analyte, the interaction was measured over time with a surface plasmon resonance sensor (“Biacore T100”, manufactured by GE healthcare), to calculate an equilibrium dissociation constant (KD value) as an index of the antibody affinity.
(Surface plasmon resonance follows binding to a sensor surface in real time, without labels.)

B1: monoclonal antibody #213-001 (antibody, human IgG1, kappa, V domains shown)
VH: EVQLVQSGAEVKKPGSSVKVSCKASGGTFSSYAISWVRQAPGQGLEWMGGIIPIFGRANYAQKFQGRVTITADESTSTAYMELSSLRSEDTAVYYCASLVTDYWGQGTLVTVSS
VL: DIQMTQSPSSLSASTGDRVTITCRASQGISSYLAWYQQKPGKAPKLLIYAASTLQSGVPSRFSGSGSGTDFTLTISSLQPEDFATYYCQQANSFPITFGQGTRLEIKT
notes: Human IgG from the ADLib system; kappa light chain
B1 yielded a Kd of 5.54 nM.

B2: monoclonal antibody #127 (antibody, human IgG1, kappa, V domains shown)
VH: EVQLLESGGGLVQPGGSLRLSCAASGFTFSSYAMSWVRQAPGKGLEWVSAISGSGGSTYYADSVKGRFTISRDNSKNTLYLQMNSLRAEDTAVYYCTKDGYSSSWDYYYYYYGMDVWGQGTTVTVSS
VL: DIQMTQSPSSLSASVGDRVTITCRASQSVSSYLAWYQQKPGKAPKLLIYEASNLQAGVPSRFSGSGSGTDFTLTINSLQPEDFATYYCLQHNSNPLTFGQGTKLEIKT
notes: Human IgG from the ADLib system (DT40 cell library); kappa light chain
In turn, B2 came in with a Kd of 0.0217 nM.

In general, Kd refers to a measure of binding affinity in units of concentration. Higher therefore signals lower affinity.
